Tests used:
Assay in all cases: cell-based or functional assay
hNav1.1 (human) = hNav1.1 (human) (UniProt P35498)
hNav1.2 (human) = hNav1.2 (human) (UniProt Q99250)
hNav1.4 (human) = hNav1.4 (human) (UniProt P35499)
hNav1.7 (human) = hNav1.7 (human) (UniProt Q15858)
hNav1.8 (human) = hNav1.8 (human) (UniProt Q9Y5Y9)
hNav1.3 (human) = hNav1.3 (human) (UniProt Q9NY46)
hNav1.9 (human) = hNav1.9 (human) (UniProt Q9UI33)
hNav1.5 (human) = hNav1.5 (human) (UniProt Q14524)
hNav1.6 (human) = hNav1.6 (human) (UniProt Q9UQD0)

Chain of hNav1.5 (human) (Q14524 whole entry): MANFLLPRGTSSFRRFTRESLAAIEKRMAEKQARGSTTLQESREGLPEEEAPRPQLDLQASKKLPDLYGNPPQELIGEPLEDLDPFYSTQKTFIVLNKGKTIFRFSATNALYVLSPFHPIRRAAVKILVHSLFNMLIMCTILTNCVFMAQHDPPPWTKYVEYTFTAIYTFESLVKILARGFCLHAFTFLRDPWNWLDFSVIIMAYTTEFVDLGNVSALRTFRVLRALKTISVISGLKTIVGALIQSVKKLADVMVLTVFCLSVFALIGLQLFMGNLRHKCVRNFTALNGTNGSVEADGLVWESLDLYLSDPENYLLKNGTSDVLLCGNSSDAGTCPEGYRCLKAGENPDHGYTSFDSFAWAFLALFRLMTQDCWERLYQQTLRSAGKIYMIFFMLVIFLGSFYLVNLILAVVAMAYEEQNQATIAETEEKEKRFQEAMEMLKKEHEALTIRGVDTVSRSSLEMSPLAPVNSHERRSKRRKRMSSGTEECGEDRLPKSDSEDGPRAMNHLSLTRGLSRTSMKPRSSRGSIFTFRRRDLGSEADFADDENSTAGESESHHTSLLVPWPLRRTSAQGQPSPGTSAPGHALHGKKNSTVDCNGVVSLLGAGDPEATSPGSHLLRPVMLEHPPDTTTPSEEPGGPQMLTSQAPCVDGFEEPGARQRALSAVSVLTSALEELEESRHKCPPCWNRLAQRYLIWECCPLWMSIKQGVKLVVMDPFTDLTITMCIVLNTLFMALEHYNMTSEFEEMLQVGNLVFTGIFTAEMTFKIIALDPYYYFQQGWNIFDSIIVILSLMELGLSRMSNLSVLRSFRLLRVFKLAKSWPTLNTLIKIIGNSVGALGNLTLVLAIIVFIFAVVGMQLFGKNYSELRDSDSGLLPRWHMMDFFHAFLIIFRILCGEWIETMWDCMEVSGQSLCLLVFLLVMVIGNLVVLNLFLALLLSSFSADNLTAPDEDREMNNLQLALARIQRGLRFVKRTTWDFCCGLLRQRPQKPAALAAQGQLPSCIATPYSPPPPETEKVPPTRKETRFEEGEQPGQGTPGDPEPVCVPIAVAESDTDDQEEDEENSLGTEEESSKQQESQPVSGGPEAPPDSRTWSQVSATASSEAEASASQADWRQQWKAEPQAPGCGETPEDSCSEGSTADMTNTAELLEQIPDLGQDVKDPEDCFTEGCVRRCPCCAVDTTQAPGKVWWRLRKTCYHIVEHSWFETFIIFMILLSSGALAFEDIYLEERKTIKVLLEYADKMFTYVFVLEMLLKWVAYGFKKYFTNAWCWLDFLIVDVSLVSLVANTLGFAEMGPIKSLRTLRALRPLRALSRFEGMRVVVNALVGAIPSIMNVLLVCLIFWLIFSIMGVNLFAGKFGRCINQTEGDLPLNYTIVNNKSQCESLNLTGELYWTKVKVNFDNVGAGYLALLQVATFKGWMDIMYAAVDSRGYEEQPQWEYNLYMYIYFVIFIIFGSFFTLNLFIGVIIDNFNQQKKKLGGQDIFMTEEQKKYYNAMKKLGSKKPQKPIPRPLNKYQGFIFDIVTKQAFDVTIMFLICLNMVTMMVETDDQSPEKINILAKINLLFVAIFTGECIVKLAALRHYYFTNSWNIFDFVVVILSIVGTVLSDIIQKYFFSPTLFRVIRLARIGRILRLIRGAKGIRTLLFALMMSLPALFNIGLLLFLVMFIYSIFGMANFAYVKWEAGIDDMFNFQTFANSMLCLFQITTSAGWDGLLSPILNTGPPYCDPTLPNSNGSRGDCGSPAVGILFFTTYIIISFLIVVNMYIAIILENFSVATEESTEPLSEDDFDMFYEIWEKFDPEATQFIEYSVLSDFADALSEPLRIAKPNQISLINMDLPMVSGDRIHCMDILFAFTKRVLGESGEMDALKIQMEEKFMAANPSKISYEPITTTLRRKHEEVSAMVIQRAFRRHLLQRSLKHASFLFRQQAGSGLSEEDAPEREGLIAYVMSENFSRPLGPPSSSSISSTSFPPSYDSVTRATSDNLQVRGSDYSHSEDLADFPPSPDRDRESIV
Chain of hNav1.8 (human) (Q9Y5Y9 whole entry): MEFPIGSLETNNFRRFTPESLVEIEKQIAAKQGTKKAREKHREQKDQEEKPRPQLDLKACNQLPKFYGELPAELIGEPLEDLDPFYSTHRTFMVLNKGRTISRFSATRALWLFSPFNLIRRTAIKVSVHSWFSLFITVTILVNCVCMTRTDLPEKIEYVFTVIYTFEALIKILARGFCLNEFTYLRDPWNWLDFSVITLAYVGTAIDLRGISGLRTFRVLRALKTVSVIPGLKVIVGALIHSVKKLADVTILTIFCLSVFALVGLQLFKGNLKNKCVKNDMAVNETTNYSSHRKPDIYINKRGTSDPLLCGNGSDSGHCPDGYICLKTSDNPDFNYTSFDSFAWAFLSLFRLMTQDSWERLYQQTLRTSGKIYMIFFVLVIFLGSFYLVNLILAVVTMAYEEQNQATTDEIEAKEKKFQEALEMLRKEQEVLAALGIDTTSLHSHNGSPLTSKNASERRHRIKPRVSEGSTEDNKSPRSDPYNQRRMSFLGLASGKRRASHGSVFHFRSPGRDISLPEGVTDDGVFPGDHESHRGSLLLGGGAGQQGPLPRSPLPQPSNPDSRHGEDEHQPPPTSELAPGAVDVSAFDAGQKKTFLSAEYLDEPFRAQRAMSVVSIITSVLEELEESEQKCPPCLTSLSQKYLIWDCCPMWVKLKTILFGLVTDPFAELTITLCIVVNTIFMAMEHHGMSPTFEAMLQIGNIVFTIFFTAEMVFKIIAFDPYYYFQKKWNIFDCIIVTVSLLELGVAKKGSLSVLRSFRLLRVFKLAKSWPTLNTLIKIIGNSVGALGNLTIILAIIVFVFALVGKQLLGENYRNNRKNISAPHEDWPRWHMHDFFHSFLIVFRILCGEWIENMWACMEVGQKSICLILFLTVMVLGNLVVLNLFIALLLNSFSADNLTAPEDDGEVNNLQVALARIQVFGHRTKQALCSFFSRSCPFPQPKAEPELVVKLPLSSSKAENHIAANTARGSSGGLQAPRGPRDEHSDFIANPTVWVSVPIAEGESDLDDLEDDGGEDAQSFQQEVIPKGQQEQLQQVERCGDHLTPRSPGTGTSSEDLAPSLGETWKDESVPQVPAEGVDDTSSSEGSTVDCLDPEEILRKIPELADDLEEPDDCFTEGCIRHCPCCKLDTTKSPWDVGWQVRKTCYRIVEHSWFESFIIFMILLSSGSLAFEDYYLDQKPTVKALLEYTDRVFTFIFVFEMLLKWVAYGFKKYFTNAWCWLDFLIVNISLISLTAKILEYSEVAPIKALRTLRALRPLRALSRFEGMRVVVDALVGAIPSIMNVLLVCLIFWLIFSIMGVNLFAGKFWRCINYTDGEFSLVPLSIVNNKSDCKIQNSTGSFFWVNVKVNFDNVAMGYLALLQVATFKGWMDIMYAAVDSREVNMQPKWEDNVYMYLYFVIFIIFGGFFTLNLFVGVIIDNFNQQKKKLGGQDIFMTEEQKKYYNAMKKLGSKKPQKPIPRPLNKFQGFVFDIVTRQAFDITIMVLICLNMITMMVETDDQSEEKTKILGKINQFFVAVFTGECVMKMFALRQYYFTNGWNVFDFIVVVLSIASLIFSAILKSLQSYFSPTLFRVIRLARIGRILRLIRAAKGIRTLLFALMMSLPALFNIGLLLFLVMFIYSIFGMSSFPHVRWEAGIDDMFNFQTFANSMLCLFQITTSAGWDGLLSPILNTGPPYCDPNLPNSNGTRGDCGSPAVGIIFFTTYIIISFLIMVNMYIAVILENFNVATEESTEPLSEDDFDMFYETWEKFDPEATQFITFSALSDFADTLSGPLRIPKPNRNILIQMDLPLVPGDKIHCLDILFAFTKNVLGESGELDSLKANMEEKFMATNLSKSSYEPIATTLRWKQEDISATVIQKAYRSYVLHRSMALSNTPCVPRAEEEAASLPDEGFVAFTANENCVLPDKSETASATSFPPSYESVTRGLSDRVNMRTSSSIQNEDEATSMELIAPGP

Pnc1a (peptide) gave a pIC50, automated patch clamp (hNav1.1 (human)) of 7.43 M, a pIC50, membrane potential assay (hNav1.1 (human)) of 4.88 M and a pIC50, automated patch clamp (hNav1.2 (human)) of 6.9 M. The pIC50, membrane potential assay (hNav1.2 (human)) was 5.53 M, the pIC50, automated patch clamp (hNav1.4 (human)) was 6.8 M and the pIC50, membrane potential assay (hNav1.4 (human)) was 4.95 M. For the same substance, the pIC50, automated patch clamp (hNav1.7 (human)) was over 9.04 M, the pIC50, automated patch clamp (hNav1.8 (human)) was 4.32 M and the pIC50, membrane potential assay (hNav1.8 (human)) was 4.58 M. For the same substance, the pIC50, automated patch clamp (hNav1.3 (human)) was 6.68 M, the pIC50, membrane potential assay (hNav1.3 (human)) was 5.09 M and the pIC50, automated patch clamp (hNav1.9 (human)) was 5.63 M. For the same substance, the pIC50, automated patch clamp (hNav1.5 (human)) was 6.01 M, the pIC50, membrane potential assay (hNav1.5 (human)) was 4.07 M and the pIC50, automated patch clamp (hNav1.6 (human)) was 6.89 M. For the same substance, the pIC50, membrane potential assay (hNav1.6 (human)) was 4.73 M.

— patent publication US20190359662A1
